{
  "source": "patent US20020082273A1",
  "about": "“Agents for use in the treatment of alzheimer's disease” (priority 1998, published 2002)",
  "tested_on": "Aβ1-40 or Aβ1-42 SDS-resistant polymers",
  "assay": "Dissolution of in vitro Cu^2+-induced SDS-resistant Aβ polymers",
  "format": "biochemical, human",
  "data": [
    {"molecule": "proteinase K: protease (protein, UniProt P06873 106-384, looked up) Proteinase K: AAQTNAPWGLARISSTSPGTSTYYYDESAGQGSCVYVIDTGIEASHPEFEGRAQMVKTYYYSSRDGNGHGTHCAGTVGSRTYGVAKKTQLFGVKVLDDNGSGQYSTIIAGMDFVASDKNNRNCPKGVVASLSLGGGYSSSVNSAAARLQSSGVMVAVAAGNNNADARNYSPASEPSVCTVGASDRYDRRSSFSNYGSVLDIFGPGTSILSTWIGGSTRSISGTSMATPHVAGLAAYLMTLGKTTAASACRYIADTANKGDLSNIPFGTVNLLAYNNYQA", "values": [
      {"measurement": "degradation of SDS-resistant Aβ polymers", "result": "complete degradation"}
    ]}
  ]
}
